Assay results: US20250136650A1, “COMPOSITIONS AND METHODS FOR DNA BINDING AND TRANSCRIPTIONAL REGULATION” (THE UNIVERSITY OF CHICAGO, priority 2021, published 2025)
Where a chain is given by its changes, count along the chain named. Entries after “also recorded” stand apart in the source; their conditions may differ. *1 amine or outer side, *2 acyl side, *3 side chain or, on linkers, in order; H or OH if unused. Bridges are numbered along the chain shown (N, C = ends). Roman numbers before positions name the chains, in order. [ ]: non-standard residue; d: D form. X1 = O=C1CC([*:1])C(=O)N1CC(=O)[*:2]; S5 = C=CCCC[C@](C)(N)C(=O)O

Tests used:
[1] = system: T1, STR22 (XBP1-derived stapled bZIP dimer) (synthetic (human XBP1)); assay: cell_activity; settings: +/-3.5; inhibition of XBP1s-induced luciferase in HeLa, 24 h
T1 sequence 1: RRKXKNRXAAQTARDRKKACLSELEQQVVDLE
T1 sequence 2: T1 sequence 1 with C20R, E25X

[2] = system: FJSTR72 (Fos/Jun-derived stapled bZIP dimer) (synthetic (human c-Fos/c-Jun)); assay: EMSA
[3] = biological target: AP-1 site; assay: EMSA, direct binding to AP-1 DNA probe
Source text: The DNA binding dimer STR22 (shown in FIG. 21 and FIG. 27) was synthesized. STR22 was subjected to EMSA to measure binding to either the UPR element (UPRE) or AP-1 binding site (AP-1).
(§1) bZIP transcriptional repressors FJSTR7 (shown in FIGS. 42 and 45), FJSTR71 (shown in FIGS. 52 and 53), and FJSTR72 (shown in FIGS. 52 and 54), were generated and tested.
Electrophoretic Mobility Shift Assays (EMSAs): For direct DNA binding experiments, STRs were serially diluted at 10× concentration in water and then 1 μL of STR solution was added to 9 μL of 5 nM IRD700-labeled DNA probe bearing either a UPRE or AP-1 motif in a final 1×binding buffer (20 mM HEPES pH 8.0, 150 mM NaCl, 5% glycerol, 1 mM EDTA, 2 mM MgCl2, 0.5 mg/mL BSA, 1 mM DTT, 0.05% NP-40). Samples were incubated for 1 hr at RT. 5 μL of each reaction was loaded on an 8% acrylamide, 0.5×TBE gel equilibrated to 4° C. Samples were resolved for 60 min at 110 V and 4° C. with 0.5×TBE+1 mM MgCl2 running buffer. Gels were pre-run at 110 V for 15 min prior to sample loading. For competition experiments, 30 or 60 nM STRs and 5 nM labeled UPRE probe were incubated with 0, 7.8, 13, 21.6, 36, 60 or 100 nM unlabeled competitor oligo for 1 hr at RT. […] ImageJ was used to quantify band intensity and the fraction of bound DNA was calculated by dividing the band intensity of bound DNA by the band intensity of free DNA from the vehicle treated lane. […]

[4] = system: Ebox site; assay: EMSA, binding to Ebox site
Source text: as §1

[5] = system: cells; assay: Fluorescent microscopy of cell penetration by FJSTRs; type: cell-based; settings: FJSTR7 and FJSTR72 at 5 μM, FJSTR71 at 2 μM
Source text: as §1

[6] = system: MC38 tumors; assay: Subcutaneous MC38 tumor model; type: in vivo; settings: MC38-bearing mouse, intratumoral
[7] = system: T1, STR22 (XBP1-derived stapled bZIP dimer) (synthetic (human XBP1)); assay: competition; settings: EMSA competition with unlabeled UPRE against 5 nM labeled UPRE
[8] = system: T1, STR22 (XBP1-derived stapled bZIP dimer) (synthetic (human XBP1)); assay: EMSA; settings: 20 mM HEPES pH 8.0, 150 mM NaCl, 2 mM MgCl2, RT 1 h; 14.17 nM reported in Example 4 (FIG. 2)
[9] = biological target: T2, STR4 (XBP1-derived unstapled bZIP dimer, Met-to-Leu) (synthetic (human XBP1)) (UniProt P17861+P17861); assay: EMSA; settings: 20 mM HEPES pH 8.0, 150 mM NaCl, 2 mM MgCl2, RT 1 h
T2 sequence 1: T1 sequence 1 with X4L, X8V
T2 sequence 2: T1 sequence 1 with X4L, X8V, C20R, E25X

3xUPRE luciferase reporter gave an IC50 [1] of 7400 nM.
Substance AP-1 site probe (FJSTR) has a Kd [2] of 12 nM.
In the case of “I: Ac-IRRERNKMAAAKSRNRRRECI[S5]ELQ[S5]EIEQLE-NH2 / II: Ac-RKRMRNRIAASKSRKRKLERI[S5]RLK[S5]KIKTLK-NH2 (linker I:20-II:25 via X1; staple (Z) I:22-I:26, II:22-II:26) [FJSTR72]”, the Kd [3] is reported as 12 nM, the “binding to Ebox site” value [4] is reported as “does not bind to the Ebox site” and the penetration of cells [5] is reported as “penetration; also recorded: capable of entering cells”. For the same substance, the tumor growth [6] was “reduces tumor growth”.
Substance “TGACGTGG (double strand) [UPRE consensus competitor (unlabeled)]” has a Ki [7] of 28.6 nM.
“TGACGTGG (double strand) [UPRE consensus probe]” gave a Kd [8] of 11 nM and a Kd [9] of 49 nM.
